Experiment: soluble on expression in E. coli; label from the status in PepcDB or PDB records

Which “soluble on expression in E. coli” value does the source give for “MYTAIPQSGSPFPGSVQDPGLHVWRVEKLKPVPVAQENQGVFFSGDSYLVLHNGPEEVSHLHLWIGQQSSRDEQGACAVLAVQLDDYLGGRPVQHREVQGNESDLFMSYFPRGLKYQEGGVESGFKHVVPNEVVVQRLYQVKGAKNIRATERALNWDSFNTGDCFILDLGQNIFAWCGGKSNILERNKARDLALAIRDSERQGKAQVEIVTDGEEPAEMIQVLGPKPALKEGNPEEDLTADKANAQAAALYKVSDATGQMNLTKVADSSPFALELLISDDCFVLDNGLCGKIYIWKGRKANEKERQAALQVAEGFISRMQYAPNTQVEILPQGRESPIFKQFFKDWK” here?
Its value is “soluble”.

For “MSSDLYANAVLYSEISQRNPELVSKMFNEATRKKLDAFLKDNEAPKLKDIVTDNVFKKRKRIASSSGNEPPVKKMAAKDSSDSDSSDDGAVKKNGVQKPVNVAAKKSATPVQKKAESSSSSDSDAPAKKLTPVKKPAQTPAQKKAASSSDSDSDDEPPKKAPAVTTKVAPKPMAKKQDTSDSDSDSEDSDDGKSKKANPVKVTPVANVLQKVVAKKAASSSSDSSDDEKKPAAKPTPAKPTPKPVVKKAESSSDSSDDEKKPVAKPAPAKATPKPAAKKADSSSDSSDDEAPAKKTPAKAAPKPVAKKAESSSDSSDDEKKPAAKPTPAKATPKPVAKKAESSSDSSDDEKKPVAKPAPAKATPKPVAKKAESSSDSSDDEKKPAAKPTPAKATPKPVAKKAESSSDSSDDEKKPVAKPTSAKATPKPAAKKADSSSDSSDDEAPAKKTPAKAAPKPASKKAESSSDSSDDEKPAAKSTPAKITPKPTAKKVASSSSDSSDDEKKPAAKPTPANATPKPVAKKAESSSDSSDDEKKPVAKPTSAKATPKPAAKKADLSSDFSDDEAPAKKTPAKAAPKPASKKAESSSDSSDDEKPAAKSTPAKTTPKPTAKKAASSSSDSSDDEKKPVAKPTSAKATPKPAAKKADSSSDSSDDEAPAKKTPVKPTPVKIVAKKVDSSSDSSDDEKKPTKATPVKVTPKSVTKKAAASSSDSSDDEKKPVVKQTPNVVPKKEKAASSSDDSSDDEKKPTAKPTPKATPKQSAKKADSSDDSSDDEAPAKKTPAKSTPAKTAVKKEASSSSDDSSDDEKTKKKSATTPAKSTPKTALKKAESSDSSDDDEDLPKPSKAVTPRPQRADSEESAETEESSSRTPALKAKPLATSTEKAVYENRKRKSSPFRRVQMTKDSVSEKFRNNQHDSHFDQWGQRANESLGKVVGKAFRHEKTKKKKGSYGGGPINQSINSIKFSDSDD”, which “soluble on expression in E. coli” value is on record?
The value was “soluble”.

Which “soluble on expression in E. coli” value does the source give for “QYAPQTQSGRTSIVHLFEWRWVDIALECERYLGPKGFGGVQVSPPNENIVVTNPSRPWWERYQPVSYKLCTRSGNENEFRDMVTRCNNVGVRIYVDAVINHMCGSGAAAGTGTTCGSYCNPGSREFPAVPYSAWDFNDGKCKTASGGIESYNDPYQVRDCQLVGLLDLALEKDYVRSMIADYLNKLIDIGVAGFRIDASKHMWPGDIKAVLDKLHNLNTNWFPAGSRPFIFQEVIDLGGEAIKSSEYFGNGRVTEFKYGAKLGTVVRKWSGEKMSYLKNWGEGWGFMPSDRALVFVDNHDNQRGHGAGGSSILTFWDARLYKIAVGFMLAHPYGFTRVMSSYRWARNFVNGEDVNDWIGPPNNNGVIKEVTINADTTCGNDWVCEHRWREIRNMVWFRNVVDGQPFANWWDNGSNQVAFGRGNRGFIVFNNDDWQLSSTLQTGLPGGTYCDVISGDKVGNSCTGIKVYVSSDGTAQFSISNSAEDPFIAIHAESKL” here?
The value was “soluble”.

Which “soluble on expression in E. coli” value does the source give for “MLTGCSRRELLDDYPVSGVDIKLDWNGVTDKLPEGVRVIFYPKSAEGRKIDTYLSVRGGKVKVPPGRYSVVAYNYDTETVQIRGEEAYETIEAFTGYCNGLGIAGTEKMVWGPDPLYVVQIDDLHIANSEEELLLDWKPKLVVKTYFFKIKVEGLEYVSSIVGSVEGMAGCYCLGRCCGMMCDAPIYFEAQGRSGEVTGSFTAFGMPEAAISRAGDKIKLTLAFIKVDKTVQKAEIDITEVVTNSESGGSGGGNVDEPPTEIELPLDEKVKVEKPTTNPDGGGGGIGGDVGDWGDEDEVVLPVE” here?
Its value is “not soluble”.

With “KFLHEISLVLQTSVDLDEVLSVVMTAITAGKGFGMNRAFLLLTDKERKHLRGYLGVGPRNYGEAWFIWDEISRDDFTLKEMAKNFYQTKFTSEKQKFHDILENLTIPLSEHDHILVRALREKKPLLVENAFHNPDCDYSLTQTLGVDTFLITPLVSRNRRIGVIISDNCVTHKPITPQDVQSLETFAFPVAFAIERASLYERLQEE” as the sequence, how does the “soluble on expression in E. coli” value read?
The value was “not soluble”.

With “MTIIFPSPIFGPVHSRRLGVSLGINLLPEDGKVCSFDCIYCECGFNADHRPKKHLPTREEVRIALEEKLKDMQKNGPAPDVLTFAGNGEPTAHPHFPEIIEDTLALRDHYFPNAKVSVLSNSTFIDRPAVFDALNKIDNNILKLDTVNEEYIHLLDRPNGKYSVRKIIEKMKEFKGNCIVQTMFLKGSYLGKDMNNTSDEFVLPWLEAVKEIAPSQVMIYTIDRETPDHDLQKATHEELDRIVELIKRTGIPATASY” as the sequence, how does the “soluble on expression in E. coli” value read?
The value was “not soluble”.

Which “soluble on expression in E. coli” value does the source give for “MSLVWKLLGGSKKEFVTPYASLLPDGHTLKEYSDSLVKKTIKAKELGFKAAKLEICIKGPYSHNNLQIEDDREFANMVKLCRKAVGNDMILMADVAYAWPDWKTALIALNMVENEDLFFIETPLPIEDLKGSKKLAEHSKTRIATGEMLQTRFECFETIEKGGIDVIQPDVGRVGGLTEAKRVCDYAEDNGILVVPHCWKSAIGIAASAHLSATTNMCPYIEFLPKELAESQLRKDLVLKELDVVDGQIPLPQQPGLGIEINDDKLKEYGVEGHHHHHH” here?
The value was “not soluble”.

Which “soluble on expression in E. coli” value does the source give for “MGSDKIHHHHHHMSPKVFVSHASEDKDRFVLQFAERLRQKGIDAWLDKWEMLPGDSLVDKIFEEGIKEAKAVIVVLSKFSVEKPWVREELNAAFVKRINNGSKLIPIVIDDCEVPEALKSTLWEPIADLSAYDKSFDRIVASIYGANDRPPIGPQPEYVQSFVQAIGNLNNIDSLVLRFSCEEVLKTGNAFVNPERVFLKDDKPILPEDELKDSLEILDGGGYIKLMRTLGGGFFPYQITTYGFDVYANASIPDYQGKIAAVVSAIVNEKLMSNAKIQERLKENKIIVDHILNVLENKGHIKQSKMIGGLSEIFNVSPSLKRALSGG” here?
The value was “not soluble”.

For “MGSDKIHHHHHHMSDVNASLVDGKKILVTGGAGFIGCAISERLAARASRYVVMDNLHPQIHASAVRPGALHEKAELVVADVTDAGAWDALLSDFQPEIIIHLAAETGTGQSLTEASRHALVNVVGTTRLTDALVKHGIVVEHILLTSSRAVYGEGAWQKDDGTIVYPGQRGRAQLEAAQWDFPGMTMLPSRADRTEPRPTSVYGATKLAQEHVLRAWSLATKTPLSILRLQNVYGPGQSLTNSYTGIVALFSRLAREKKVIPLYEDGNVTRDFVSIDDVADAIVATLVRTPEALSLFDIGSGQATSILDMARIIAAHYGAPEPQINGAFRDGDVRHAACDLSESLANLGWKPQWSLKRGIGELQTWIAQELDRKN”, which “soluble on expression in E. coli” value is on record?
Its value is “not soluble”.

With “MTVQQKIASGRSSGRTVSQERLNQLSEQTRRAIAQLEPVTLDWVAPVATDMDVAVIGGGQSGVAIAFGLRRAGIRRVQVFDAATPETAGVWNTIARMHTLRAGKGFTGLEQGIPELTFEHWYVALHGDAAFAAMAEIPRTVWLDYLNWYRETAGIDVRWQHRLISIDPRSDAENAPLNLRFELQDKGVIDLSTQTIVLATGLDGLGEPYIPSVLSHTLPPDRLVHTNDLINFSSLRGLSVGVVGAAASAFDAAAVALEHGAASVHQFVRHGDLVEANDQAAARPSADKLFFPEFDDAMRWRLILERRRRSSAPDAAIARACQHPNHYLHFNVAAEQIVALGDDIVARTTTGDIMLDTVIAATGYRQNVYARPELTAAAPHILLWQDRVAAAEGESGWSSHPYLGKGFELQEIEPGSAPWLKRIHVYTFAAIISHGIHAGDIGSAAIALPRLIAAVARSLFIHARADYERLASLGPSIAVDRVAPSPVSGPWEAAPLEHHHHHH” as the sequence, how does the “soluble on expression in E. coli” value read?
The value was “soluble”.

For “MDVSLESLVNSLQATRSTLLSEIEMLNDTEVNVKPRRDKWSIIQILHHLHLVEQSVTSALVYALQKNERNMTPFKDLQLTLDRTHKREAPQQMQPTETLMKKQQGIQLLEHSRQELLHALHSVIDEKDLFENGLKHPVFNDLNLYQWVQFLDLHEQRHLTQLKEAKHAILQR”, which “soluble on expression in E. coli” value is on record?
The value was “not soluble”.

Which “soluble on expression in E. coli” value does the source give for “MFALEVLALERRTALLLGASGLVGGELLKLLLQSDLYRCVTIFVRTPLPVEHEKLQQVVVDFARLESYERYFYVDDVFCCLGTTRKKAKTKQQFIQVDYEYTLRAAALAEKCRAKSFLTVSSVGANPCSPFFYQRVKGETEEALQRLSIPSLHIFRPSLLVGKRREFRLGEALGGWLLCRLPFLFVGKWKKYKPVDAHQLALAMFYRAASATSGVHIYECDELARIS” here?
The value was “not soluble”.

For “SLDARLWLERIRELPIPDGIRIMNVCGGHERSISMAGLRTALPPAIRLIPGPGCPVCICPEEDIYQAIRLGLEGEAVVATFGDMLRVPVNLGRQAVRTLEQAKAAGADIRPIASPIEARIIAEKAAGKPVVLFAVGFETTMAPVAALMAEGLPDNLYILCSGRLTWPAVKLLLDSDECVLDALVAPGHVATVMGPEEWAFVADDYRLPVAIAGFTPASLLRAIHSTIVQWLEETPRLDNCYPEAVKPGGNPKAREFLDRSFDVAAGNWRGIGPIAASAYALKPGFAAHDARLHFPDYDAGDRRHAGEMPAGCDCARVVLGRIQPDECRIYGKPCSPRSPVGPCMVSDEGACRIWWAAGVRKDSAAA”, which “soluble on expression in E. coli” value is on record?
The value was “not soluble”.

With “MNYPLIFAENQRIETERLILRPVTLADAEDMYEYASDEETVRYVFLKNQTIAETRQNIAKFFMGEPLGKYGIEVKETGKMIGTIDLRVNETNNIGELGYVLNRTFWGNGYMPEAATALVELGFAKMKLMRIFALHDQDNPASGRVMEKIGFTYEGTLPNARISKGKIVTDVYRGMTLETWQNRQK” as the sequence, how does the “soluble on expression in E. coli” value read?
Its value is “soluble”.

For “MGSDKIHHHHHHMEMKMQQIDILRKLSEVWRLFGDMPDDTTLSVDLAALYLGISVKTLARYRQSGGGPSYIQYQSEGSQARNQRVNYLLKDLRSWRDNHKVSNTMHAAQVRGLAFDSLLDFCKPQPFWQVTDKSSSRDKSKILSHALTIPDDDFKKKLLEPNADIVWISIEEALFNEWQTADERQKWNDIFKEFLNEIISASNAAQEKHILNAILK”, which “soluble on expression in E. coli” value is on record?
Its value is “not soluble”.

With “MDQLQIKDLEMFAYHGLFPSEKELGQKFIVSAILSYDMTKAATDLDLTASVHYGELCQQWTTWFQETSEDLIETVAYKLVERTFESYPLVQEMKLELKKPWAPVHLSLDTCSVTIHRRKQRAFIALGSNMGDKQANLKQAIDKLRARGIHILKESSVLATEPWGGVEQDSFANQVVEVETWLPAQDLLETLLAIESELGRVREVHWGPRLIDLDLLFVEDQILYTDDLILPHPYIAERLFVLESLQEIAPHFIHPILKQPIRNLYDALKK” as the sequence, how does the “soluble on expression in E. coli” value read?
Its value is “soluble”.

Which “soluble on expression in E. coli” value does the source give for “MNLVPPKEEENLIVFNKQLGEDRRIVMSRSNLNELLKALEENELLCTDLYQVNTDGVILTKQRAEKVIGWARNHYLSSCPSPSIKEGRLILPRESIEISVKRLKAQEDISRKPTQNLKRFLFLQNIAKDEFETNFVSAVVAPGEIGVKFDDIGALEHVKKTLNELVILPMRRPELFTRGNLLRPCKGILLFGPPGTGKTLLAKALATEAGANFISITGSTLTSKWFGDAEKLTKALFSFASKLAPVIIFVDEVDSLLGARGGAFEHEATRRMRNEFMAAWDGLRSKDSQRILILGATNRPFDLDDAVIRRLPRRIYVDLPDAENRLKILKIFLTPENLETGFEFDKLAKETEGYSGSDLKNLCIAAAYRPVQELLQEENKDSVTNASPDLRPLSLDDFIQSKAKVSPSVAYDATTMNELRKWNEQYGEGGTRTKSPFGF” here?
The value was “soluble”.

For “MIVRGGGDLATGVIQKLWHVGFKILVLETECPLAIRRTVSVCDAIFQKEQRVEDLVAVRITSLKDCAKCWQQNKLPVFVDQTASAIQQLKPLIVIDAILAKKNLGTHRGMAPITIALGPGFSAPQDVDVVIETMRGHRLGRLYFEGTALPNTGIPGEIGGKSAERVVHAPASGQVTHLKNIGDLVLKGEALFLIDQVPVYSPLTGTLRGLISEKVTCYQGLKCADVDPRPVEKVDCLTISDKARALGGAVLEAIFMIGRRKNVL”, which “soluble on expression in E. coli” value is on record?
The value was “not soluble”.
